Substitutions are numbered along the chain they refer to.
T1: recombinant human CD30L (human, UniProt P32971 63-234)
T1 construct: Recombinant or purified protein of the ELISA, BLI, Carterra and KinExA assays; construct not described; also called rhCD30L; huCD30L
T1 sequence (looked up): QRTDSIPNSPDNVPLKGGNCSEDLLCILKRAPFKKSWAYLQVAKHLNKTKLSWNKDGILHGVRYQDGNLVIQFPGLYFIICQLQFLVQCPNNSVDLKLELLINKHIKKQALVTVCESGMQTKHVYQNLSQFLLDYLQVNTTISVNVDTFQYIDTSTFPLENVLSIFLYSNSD

T2: human CD30L expressed on B16 cells (human, UniProt P32971 1-234)
T2 construct: whole, on cells; B16 cell line transfected to express human CD30L; also called B16-huCD30L; hCD30L B16
T2 sequence (looked up): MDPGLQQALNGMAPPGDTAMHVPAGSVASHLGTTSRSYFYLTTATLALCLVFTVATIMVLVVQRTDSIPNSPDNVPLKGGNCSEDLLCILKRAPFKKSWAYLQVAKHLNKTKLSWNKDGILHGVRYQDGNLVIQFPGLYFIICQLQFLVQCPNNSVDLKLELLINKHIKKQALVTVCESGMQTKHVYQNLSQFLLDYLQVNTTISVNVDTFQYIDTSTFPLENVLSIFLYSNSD

B1: Clone 1 (antibody, V domains shown)
VH: QVQLQESGPGLVKPSETLSLTCTVSGGSISGYYWSWIRQPPVKGLEWIGYIFYSGYTKYNPSLKSRVTISVDTSKNQFSLKLSSVTAADTAVYYCARDRWDFDYWGQGALVTVSS
VL: AIQMTQSPSYLSASVGDRVTIACRASQGIRNNLGWYQQKPGKAPKLLIYAESSLQSGVPSRFSGSGSGTDFTLTISSLQPEDFATYYCLQDFNYPYTFGQGTKLEIK
notes: also called anti-CD30L antibody clone 1 (parental)
B2: Clone 3 (antibody, V domains shown)
VH: B1 VH
VL: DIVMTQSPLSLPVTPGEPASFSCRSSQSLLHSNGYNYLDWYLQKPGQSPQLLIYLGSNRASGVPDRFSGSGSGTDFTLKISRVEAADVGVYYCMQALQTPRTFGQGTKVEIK
notes: hybridoma clone
B3: Clone 4 (antibody, V domains shown)
VH: QVQLVESGGGVVQPGRSLRLSCAASGFPFSSYGMHWVRQAPGKGLEWVTFIWFDGNNKDYADSVKGRFSVSRDNSKNTLYLQMNSLRADDTAVYYCARNGVYYGSGAYVDYWGQGTLVTVSS
VL: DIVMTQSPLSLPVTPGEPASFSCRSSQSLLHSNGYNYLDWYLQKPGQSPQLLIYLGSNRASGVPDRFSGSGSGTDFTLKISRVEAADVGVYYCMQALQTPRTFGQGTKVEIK
notes: hybridoma clone
B4: Clone 2 (antibody, V domains shown)
VH: EVQLVESGGGLVQPGRSLRLSCAASGFNFDDYAMHWVRQAPGKGLEWVSGISWRSGNIGYAGSVKGRFTISRDNAKNSLYLQMNSLRPEDSALYYCAKDKGIGFNWNYEGFDYWGQGTLVTVSS
VL: DIQMTQSPSSLSASVGDRVTITCRASQGISNHLAWFQQKPGKAPKSLIYAASSLQSGVPSKFSGSGSGTDFTLTISSLQPEDFATYYCQQYVTYPLTFGGGTKVEIK
notes: also called anti-CD30L antibody clone 2 (parental)
B5: Clone 1, Mouse IgG (antibody, V domains shown)
VH: B1 VH
VL: B1 VL
B6: Clone 1, Human IgG1 (antibody, V domains shown)
VH: B1 VH
VL: B1 VL
B7: anti-CD30L Reference 1 antibody (antibody, human IgG1, lambda, V domains shown)
VH: QVQLQESGPGLVKPSETLSLTCTVSGGSISSYIWSWIRQPAGKGLEWIGRIYASGNTNYNPSLKSRVTISVDTSKNQFSLKLSSMTAADTAVYYCARDYRVAGTYYYYYGLDVWGQGTTVTVSS
VL: QSALTQPASVSGSPGQSITISCTGTSSDVGVYDYVSWYQQHPGKAPKLMIYEVSNRPSGVSNRFSGSKSGNTASLTISGLQTEDEADYYCSSYTSRSTWVFGGGTKLTVLG
B8: Clone 2, Mouse IgG (antibody, V domains shown)
VH: B4 VH
VL: B4 VL
B9: Clone 2, Human IgG1 (antibody, V domains shown)
VH: B4 VH
VL: B4 VL
B10: anti-CD30L antibody clone 80 (antibody, V domains shown)
VH: EVQLVESGGGLVQPGGSLRLSCEVSGFTFSSYDMHWVRQVTGTGLEWVSSIGIGGDTYYPGSVKGRFTISRENAKNSLYLQMNSLRGGDTGVYYCARGEWDLLWYFMDVWGKGTTVTVSS
VL: B4 VL with V15I, N31S, H32W, F36Y, S46L, K61R, Y91A, V92N, T93S, Y94F
notes: purified recombinant IgG, mouse strain #1

Molecular target: T3, recombinant cynomolgus CD30L protein (cynomolgus)
T3 construct: Recombinant protein of the ELISA; also called cyCD30L; cyno CD30L
Assay: ELISA, cyCD30L, 1/500 dil

| Elisa Binding (OD) | Binder |
| --- | --- |
| 2.87 | B1 |
| 2.35 | B2 |
| 2.38 | B3 |
| 3.18 | B4 |

Molecular target: T3, recombinant cynomolgus CD30L protein
Assay: ELISA, cyCD30L, 1/50 dil

| Elisa Binding (OD) | Binder |
| --- | --- |
| 2.83 | B1 |
| 3.2 | B2 |
| 2.58 | B3 |
| 3.76 | B4 |

Molecular target: cynomolgus CD30L on HEK293 cells (cynomolgus)
Assay: cell-based or functional assay

| Inhibition of IL-8 release in a dual cell assay (HEK293-cyCD30L cells + K299 cells) IC50 [nM] | Binder |
| --- | --- |
| 0.55 | B5 |
| 0.22 | B6 |
| 0.68 | B7 |
| 0.46 | B8 |
| 0.24 | B9 |

Molecular target: T3, recombinant cynomolgus CD30L protein
Assay: ELISA, cyCD30L, 1/5000 dil

| Elisa Binding (OD) | Binder |
| --- | --- |
| 1.16 | B1 |
| 0.552 | B2 |
| 0.583 | B3 |
| 1.23 | B4 |

Molecular target: T1, recombinant human CD30L
Assay: ELISA on rhCD30L, OD 450 nm against Ab (nM)

| EC50 (read off the curve) [nM] | Binder |
| --- | --- |
| ~0.1 | B10 |

Molecular target: T2, human CD30L expressed on B16 cells
Assay: flow cytometry on B16-huCD30L cells, MFI against Ab (nM)

| EC50 (read off the curve) [nM] | Binder |
| --- | --- |
| ~2 | B10 |

Reference: patent US20260209372A1 (PROMETHEUS BIOSCIENCES, published 2026)
